These results are taken from US20220251236A1 (Boehringer Ingelheim, published 2022).

The target in one assay is T1, Human CD3 E+G HuFc-6xHis (human).
T1 construct: also called hu CD3εγ-Fc
The experiment in a line: SPR (ProteOn XPR36), HuCD3E_HuCD3G-Fc amine-coupled, bispecific as analyte, Example 4B. Put shortly:
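SPR kinetics with the bispecific constructs flowed as analyte over a directly amine-coupled (pH 4.5 acetate) human CD3εγ-Fc surface. Association runs 600 s and dissociation 1800 s, at 30 μl/min in PBS-T-EDTA.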

For another assay, the target named is T2, EGF5+6.
T2 construct: also called Hu DLL3 EGF5+6 on HEK293 cells
T2 membrane-anchored DLL3 subdomain construct: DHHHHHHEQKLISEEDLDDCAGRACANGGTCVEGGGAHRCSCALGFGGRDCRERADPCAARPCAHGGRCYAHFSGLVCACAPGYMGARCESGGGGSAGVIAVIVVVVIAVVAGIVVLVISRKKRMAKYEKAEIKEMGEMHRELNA
The experiment in a line: flow cytometry on HEK293 cells expressing the DLL3 subdomain construct, PE anti-human secondary, control: secondary antibody only. Put shortly: (§1)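 Binders tested on HEK293 cells displaying the DLL3 subdomain construct; bound molecules detected by flow cytometry using PE-conjugated anti-human secondary antibody. Negative control: cells with secondary antibody only.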
In general terms: In flow cytometry, cells or beads pass a laser one at a time.

Assay [1] concerns the target T3, EGF6+MEMBRANE PROXIMAL PEPTIDE.
T3 construct: also called Hu DLL3 EGF6+membrane proximal peptide on HEK293 cells
T3 membrane-anchored DLL3 subdomain construct: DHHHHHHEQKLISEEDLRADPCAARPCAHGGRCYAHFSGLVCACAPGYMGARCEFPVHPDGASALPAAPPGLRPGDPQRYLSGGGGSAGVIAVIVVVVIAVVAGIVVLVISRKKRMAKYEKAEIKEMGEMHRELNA
The description is as above. Put shortly: as §1

A further assay addresses T4, EGF1+2.
T4 construct: also called Hu DLL3 EGF1+2 on HEK293 cells
T4 membrane-anchored DLL3 subdomain construct: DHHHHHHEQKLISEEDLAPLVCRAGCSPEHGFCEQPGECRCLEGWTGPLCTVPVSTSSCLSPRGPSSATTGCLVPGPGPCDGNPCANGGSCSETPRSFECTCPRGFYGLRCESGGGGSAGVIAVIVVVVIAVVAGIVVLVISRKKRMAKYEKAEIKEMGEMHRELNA
Described as above. Put shortly: as §1

The target in a further assay is T5, EGF3+4.
T5 construct: also called Hu DLL3 EGF3+4 on HEK293 cells
T5 membrane-anchored DLL3 subdomain construct: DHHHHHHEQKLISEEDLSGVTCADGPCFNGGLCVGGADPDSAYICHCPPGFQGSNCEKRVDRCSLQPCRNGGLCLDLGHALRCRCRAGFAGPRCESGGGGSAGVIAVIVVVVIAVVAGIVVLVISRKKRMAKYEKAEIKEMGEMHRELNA
Described as above. Put shortly:
as §1

The target of another assay is T6, EGF2+3.
T6 construct: also called Hu DLL3 EGF2+3 on HEK293 cells
T6 membrane-anchored DLL3 subdomain construct: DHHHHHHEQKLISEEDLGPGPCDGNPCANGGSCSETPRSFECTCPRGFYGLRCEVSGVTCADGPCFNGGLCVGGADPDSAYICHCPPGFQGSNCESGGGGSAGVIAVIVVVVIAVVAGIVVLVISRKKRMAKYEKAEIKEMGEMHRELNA
The assay is described as above. Put shortly: as §1

A further assay deals with T7, EGF4+5.
T7 construct: also called Hu DLL3 EGF4+5 on HEK293 cells
T7 membrane-anchored DLL3 subdomain construct: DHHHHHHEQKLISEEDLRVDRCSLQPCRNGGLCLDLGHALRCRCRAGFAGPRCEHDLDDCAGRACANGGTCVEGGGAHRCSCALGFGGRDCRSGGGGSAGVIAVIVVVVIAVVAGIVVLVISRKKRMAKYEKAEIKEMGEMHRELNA
The assay is described as above. Put shortly:
as §1

By Kd is commonly meant the constant that tells how readily two partners part at equilibrium. Lower therefore signals a tighter complex.

T1 sequence (chain, as listed by the source limits assumed): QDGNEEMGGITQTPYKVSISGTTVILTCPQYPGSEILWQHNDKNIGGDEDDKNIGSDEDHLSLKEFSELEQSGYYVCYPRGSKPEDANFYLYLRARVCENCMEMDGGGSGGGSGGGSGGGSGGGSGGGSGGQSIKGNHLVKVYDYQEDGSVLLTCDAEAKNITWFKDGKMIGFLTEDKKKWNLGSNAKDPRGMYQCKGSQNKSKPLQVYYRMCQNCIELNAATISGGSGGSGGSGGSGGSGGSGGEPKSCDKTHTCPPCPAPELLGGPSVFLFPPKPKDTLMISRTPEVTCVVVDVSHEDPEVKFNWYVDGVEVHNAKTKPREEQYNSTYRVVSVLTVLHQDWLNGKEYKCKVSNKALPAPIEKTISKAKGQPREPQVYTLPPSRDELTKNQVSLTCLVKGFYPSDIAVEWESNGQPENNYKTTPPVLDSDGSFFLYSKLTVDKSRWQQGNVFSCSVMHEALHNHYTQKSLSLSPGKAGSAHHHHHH

B1: DLL3#17/CD3#1 (bispecific antibody, human IgG1, kappa, lambda, L234A L235A)
chain 1: DIQMTQSPASLAASVGETVTITCRASENIYYSLAWYQQKQGKSPQLLIYNTNSLEDGVPSRFSGSGSGTQYSMKINSMQPEDTATYFCKQAYDFPLTFGAGTKLELKRTVAAPSVFIFPPSDEQLKSGTASVVCLLNNFYPREAKVQWKVDNALQSGNSQESVTEQDSKDSTYSLSSTLTLSKADYEKHKVYACEVTHQGLSSPVTKSFNRGECGGGGSEGKSSGSGSESKSTEGKSSGSGSESKSTGGGGSQIQLQQSGPEVVKPGASVKISCKASGYTFISYYIHWVKQRPGQGLEWIGWIYPGDGSTNNNEKFKGKTTLTADKSSSTAYMLLSSLTSEDSAVYFCARGEGNAMDDWGQGTSVTVSSASTKGPSVFPLAPSSKSTSGGTAALGCLVKDYFPEPVTVSWNSGALTSGVHTFPAVLQSSGLYSLSSVVTVPSSSLGTQTYICNVNHKPSNTKVDKRVEPKSCDKTHTCPPCPAPEAAGGPSVFLFPPKPKDTLMISRTPEVTCVVVDVSHEDPEVKFNWYVDGVEVHNAKTKPREEQYNSTYRVVSVLTVLHQDWLNGKEYKCKVSNKALPAPIEKTISKAKGQPREPQVYTLPPSREEMTKNQVSLWCLVKGFYPSDIAVEWESNGQPENNYKTTPPVLDSDGSFFLYSKLTVDKSRWQQGNVFSCSVMHEALHNHYTQKSLSLSPG
chain 2: EAVVTQEPSLTVSPGGTVTLTCRSSTGAVTTSNYANWVQEKPGQLPRGLIGGTNKRAPWVPARFSGSLLGGKAALTLSGAQPEDEAEYFCALWYSNLWVFGGGTKLTVLGQPKAAPSVTLFPPSSEELQANKATLVCLISDFYPGAVKVAWKADGSPVNTGVETTTPSKQSNNKYAASSYLSLTPEQWKSHRSYSCQVTHEGSTVEKTVAPAECSGGGGSEGKSSGSGSESKSTEGKSSGSGSESKSTGGGGSEVQLVESGGGLVQPGGSLKLSCAASGFTFNTYAMNWVRQAPGKGLEWVARIRSKYNNYATYYADSVKDRFTISRDDSKNTAYLQMNNLKTEDTAVYYCVRHGNFGNSYVSWFAYWGQGTLVTVSAASTKGPSVFPLAPSSKSTSGGTAALGCLVKDYFPEPVTVSWNSGALTSGVHTFPAVLQSSGLYSLSSVVTVPSSSLGTQTYICNVNHKPSNTKVDKRVEPKSCDKTHTCPPCPAPEAAGGPSVFLFPPKPKDTLMISRTPEVTCVVVDVSHEDPEVKFNWYVDGVEVHNAKTKPREEQYNSTYRVVSVLTVLHQDWLNGKEYKCKVSNKALPAPIEKTISKAKGQPREPQVYTLPPSREEMTKNQVSLSCAVKGFYPSDIAVEWESNGQPENNYKTTPPVLDSDGSFFLVSKLTVDKSRWQQGNVFSCSVMHEALHNRFTQKSLSLSPG
notes: Heterodimer of one DLL3 chain and one CD3 chain (scFab-Fc, knob-in-hole)
Molecule B1 returned a Kd in the assay with Human CD3 E+G HuFc-6xHis of 2 nM. Also, the binding result (with EGF5+6; in assay [1]; in the assay with EGF1+2; with EGF3+4; with EGF2+3; with EGF4+5) was “no binding (tested: 1.6 nM)” each time.

B2: DLL3#13/CD3#1 (bispecific antibody, human IgG1, kappa, lambda, L234A L235A)
chain 1: DVLMTQTPLSLPVSLGDQAAISCRSSQSIVHSNGNTYLEWYLQKPGQSPKVLIYKVSNRFSGVPDRFSGSGSGTDFTLKISRVEAEDLGVYYCFQGSHVPYTFGGGTKLEIKRTVAAPSVFIFPPSDEQLKSGTASVVCLLNNFYPREAKVQWKVDNALQSGNSQESVTEQDSKDSTYSLSSTLTLSKADYEKHKVYACEVTHQGLSSPVTKSFNRGECGGGGSEGKSSGSGSESKSTEGKSSGSGSESKSTGGGGSQIQLVQSGPELKKPGETVKISCKASGYTFTNYGVTWVKQAPGKGLKWMGWINTYSGAPTYADDFNGRFALSLETSASTAYLQINNLKNEDTATYFCARLDDYDLYYFDYWGQGTALTVSSASTKGPSVFPLAPSSKSTSGGTAALGCLVKDYFPEPVTVSWNSGALTSGVHTFPAVLQSSGLYSLSSVVTVPSSSLGTQTYICNVNHKPSNTKVDKRVEPKSCDKTHTCPPCPAPEAAGGPSVFLFPPKPKDTLMISRTPEVTCVVVDVSHEDPEVKFNWYVDGVEVHNAKTKPREEQYNSTYRVVSVLTVLHQDWLNGKEYKCKVSNKALPAPIEKTISKAKGQPREPQVYTLPPSREEMTKNQVSLWCLVKGFYPSDIAVEWESNGQPENNYKTTPPVLDSDGSFFLYSKLTVDKSRWQQGNVFSCSVMHEALHNHYTQKSLSLSPG
chain 2: B1 chain 2
notes: as for B1
In the case of B2, the dissociation constant Kd with Human CD3 E+G HuFc-6xHis stood at 3 nM. Moreover, the binding result (with EGF5+6; in assay [1]; with EGF1+2; in the assay with EGF3+4; with EGF2+3; with EGF4+5) was “no binding (tested: 1.6 nM)” in each case.

B3: DLL3#18/CD3#1 (bispecific antibody, human IgG1, kappa, lambda, L234A L235A)
chain 1: DIQMTQSPASLAASVGETVTITCRASENIYYSLAWYQQKQGKSPQLLIYNANSLEDGVPSRFSGSGSGTQYSMKINNMQPEDTATYFCKQAYDVPLTFGAGTKLELKRTVAAPSVFIFPPSDEQLKSGTASVVCLLNNFYPREAKVQWKVDNALQSGNSQESVTEQDSKDSTYSLSSTLTLSKADYEKHKVYACEVTHQGLSSPVTKSFNRGECGGGGSEGKSSGSGSESKSTEGKSSGSGSESKSTGGGGSQVQLQQSGPDLVKPGASVKMSCEASGYTFTAYFIHWVKQKPGQGLEWIGYIDPFNDDTNYNVKFKGKATLTSDTSSSIAYMELSSLTSEDSSFYYCARGTSATLDYWGHGTTLTVSSASTKGPSVFPLAPSSKSTSGGTAALGCLVKDYFPEPVTVSWNSGALTSGVHTFPAVLQSSGLYSLSSVVTVPSSSLGTQTYICNVNHKPSNTKVDKRVEPKSCDKTHTCPPCPAPEAAGGPSVFLFPPKPKDTLMISRTPEVTCVVVDVSHEDPEVKFNWYVDGVEVHNAKTKPREEQYNSTYRVVSVLTVLHQDWLNGKEYKCKVSNKALPAPIEKTISKAKGQPREPQVYTLPPSREEMTKNQVSLWCLVKGFYPSDIAVEWESNGQPENNYKTTPPVLDSDGSFFLYSKLTVDKSRWQQGNVFSCSVMHEALHNHYTQKSLSLSPG
chain 2: B1 chain 2
notes: as for B1
Turning to B3, the dissociation constant (Kd) with Human CD3 E+G HuFc-6xHis was found to be 3 nM. Besides, the binding result (with EGF5+6; in assay [1]; with EGF1+2; with EGF3+4; with EGF2+3; with EGF4+5) was “no binding (tested: 1.6 nM)” each time.
